± gives the uncertainty stated by the source.

Our source for the amyloid nucleation score values is the supplement of paper PMC12042874.

The data set can be described thus: amyloid nucleation score (Sup35N fusion, yeast selection) (log enrichment); library NNK2; higher = more nucleation; inactive = no reads after selection. The method in brief:
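Output and input plasmid inserts were sequenced by Illumina after psi-negative yeast carrying Sup35N fused to peptides of 20 random codons had been induced 24 hours with 100 μM copper sulfate and grown 7 days at 30°C on medium lacking adenine and uracil. The nucleation score is the DiMSum log enrichment of output over input reads, centred on the mode score of non-aggregating sequences. Sequences with under 100 input reads were excluded.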

For TWNGVWLGDFACFSWYMGPL, the amyloid nucleation score came to 0.094 ± 0.36.

For GIGYRNVISSIMGFRFTGIR, the amyloid nucleation score is 0.109 ± 0.53.

KSKLRCTFYSDAL: the amyloid nucleation score is -0.219 ± 0.27.

The substance CLEHHNIWVILLVER came in with an amyloid nucleation score of -0.207 ± 0.63.

In turn, DLFNRNIVVCSLFLGYMVTI displayed an amyloid nucleation score of 2.99 ± 0.092.

Consider TNEAIEMS, for which the amyloid nucleation score entry was “inactive”.

Take NSSTTHAGLVYYYSGKGPRV: the amyloid nucleation score entry was “inactive”.

With YSWVGLCPLIGRLYTGFAN, the amyloid nucleation score was -1.71 ± 0.54.

In the case of NVNMVMNNSGKSRLCISENY, the amyloid nucleation score was -0.19 ± 1.

RLIKTHVVKLFQSRWWVIGD: the amyloid nucleation score was determined as 0.631 ± 0.51.

On to GYTIDWMGVLQSVVLCT, for which the amyloid nucleation score amounted to 0.524 ± 0.6.

The substance CYRHVLFKATLKWCNFAVFI yielded an amyloid nucleation score of 7.383 ± 0.046.

RVLTKYMFMILFSSSFSYVR: the amyloid nucleation score came out at 0.154 ± 0.5.

For QSNRKYGETHWFSTCNMHVL, the amyloid nucleation score was 0.533 ± 0.45.

In turn, NFIFDFVV gave an amyloid nucleation score of -0.03 ± 0.21.

The substance HFSDVSSEVGVIHCSMLGSN gave an amyloid nucleation score of -0.107 ± 0.49.

As for SKQTRYSSCGIISGLVDPFA, the amyloid nucleation score is -0.329 ± 0.23.

YNIFPIISLITRNK showed an amyloid nucleation score of 6.42 ± 0.064.

Regarding LGIASLQNGSGIGAWQAY, the amyloid nucleation score turned out to be 0.04 ± 0.76.

Substance FHVCWERSMLIRV gave an amyloid nucleation score of -0.559 ± 0.76.

VNWIKGKGRLPPFHGIDCWW registered an amyloid nucleation score of -0.139 ± 0.63.

Consider MTSYAWMNTSSM, for which the amyloid nucleation score result was “inactive”.

WMWPPMPLGKVAQRGLAVVC displayed an amyloid nucleation score of 1.28 ± 0.22.

DNVGYYNINKDLKFIVGSSH: the amyloid nucleation score was determined as 0.274 ± 1.1.

The substance CRSHVAGFDAHTNILLKPIC displayed an amyloid nucleation score of -0.346 ± 0.64.

With IPRIRR, the amyloid nucleation score is 0.622 ± 0.66.

Take HVWLIGFNLFLYFITLVVWV: the amyloid nucleation score was -0.459 ± 1.1.

Turning to GKCYFA, the amyloid nucleation score was -1.87 ± 0.62.

The substance YEFCSTRQRSELGGK showed an amyloid nucleation score of 5.24 ± 0.069.

RWATVLLDPF: the amyloid nucleation score was -0.299 ± 0.79.

NSVLVLAWWVNANCGLREGG gave an amyloid nucleation score of 5.454 ± 0.041.

In the case of NHSMRPNRTVSGMLTSIYYR, the amyloid nucleation score was -0.533 ± 0.55.

In the case of YAIKMGFASQVSVEFRWLYK, the amyloid nucleation score is -0.244 ± 0.28.

As for NAYLFMFFRRGLWFSVLPFV, the amyloid nucleation score is -1.09 ± 1.1.

VSACQSESVSNVFDR displayed an amyloid nucleation score of -0.152 ± 0.56.

Take WKNYRNMEWCVSSVLSFFYV: the amyloid nucleation score worked out at 5.31 ± 0.077.

For the substance KMSMSFSWWE, the amyloid nucleation score was 3.51 ± 0.068.

MVGCFWVMFVGREIYSRVRS registered an amyloid nucleation score of -0.915 ± 0.26.

As for LAYLYTCLLLWSGSCNMTQV, the amyloid nucleation score entry is “inactive”.

Take TRCKGHYVWSLQSFRCSIVK: the amyloid nucleation score is -0.512 ± 0.78.

Take FVVLFLFYFEVFAVYKVSLG: the amyloid nucleation score entry is “inactive”.

Consider TFAVENHFFMEVLRRKVLIG, for which the amyloid nucleation score result was “inactive”.

For the substance VVGSWYKSGRKRLQRDDALS, the amyloid nucleation score was -1.03 ± 0.55.

On to YCDIKIEDLNLGGETGSDRR, for which the amyloid nucleation score result is “inactive”.

For SFHYLYWIIRLVGRVYLDEG, the amyloid nucleation score was -0.195 ± 0.36.

Substance KYSAQIL gave an amyloid nucleation score of 0.172 ± 0.33.

Turning to SVKRHPFRTVKLGVSVLLWV, the amyloid nucleation score was found to be 1 ± 0.18.

Turning to FNNMWYSFKQSLSACSVGRR, the amyloid nucleation score entry was “inactive”.

As for FVYNLTKTGLCYAQSVKYHN, the amyloid nucleation score is -0.483 ± 0.39.

Regarding AVISGCFMRGLTTRIRTTLM, the amyloid nucleation score is -0.073 ± 0.74.

The substance QFTCYTVYNGYWA displayed an amyloid nucleation score of 3.28 ± 0.15.

As to TCSGLCYIHWACIIGKDNYM, the amyloid nucleation score was 4.9 ± 0.087.

WLLLYTCHLMISQISFHRKS displayed an amyloid nucleation score of -0.874 ± 0.61.

Take GYSAYESANWRLA: the amyloid nucleation score is 1.19 ± 0.44.

Substance VWRSLMCFSWNPTMHRLISV came in with an amyloid nucleation score of 0.363 ± 0.53.

In turn, RTSSTR came in with an amyloid nucleation score of 0.468 ± 0.28.

FICPMYESSRIVV yielded an amyloid nucleation score of 0.335 ± 0.64.

For RSDVSLVYNLWALWWAR, the amyloid nucleation score is 0.906 ± 0.52.

In the case of GYSILKC, the amyloid nucleation score entry was “inactive”.

For the substance IRANGDKSVYM, the amyloid nucleation score is 2.21 ± 0.076.

As for YTKSQGAFT, the amyloid nucleation score is -0.135 ± 0.65.

Consider YLGMLYFLVASHASDFATYW, for which the amyloid nucleation score was 4.16 ± 0.051.

The substance YGKKCLSKAKKSTKISLPG registered an amyloid nucleation score of 0.016 ± 1.1.

For the substance GSPGIETGIAAEEWNGGW, the amyloid nucleation score amounted to 0.865 ± 0.5.

For the substance WRCGVVFRDEYCYRGNRTFK, the amyloid nucleation score was -0.675 ± 0.26.

DFFYTYGGIYGYWSFRHGIV came in with an amyloid nucleation score of -1.24 ± 0.62.

GEDHYIPQLFDGSVIILART showed an amyloid nucleation score of 0.117 ± 0.79.

In turn, IQARSYFVPTFSFLCTHSPT displayed an amyloid nucleation score of 0.839 ± 0.48.

With FKIDNGWYWCRTCGQNKGSS, the amyloid nucleation score was -0.461 ± 0.56.

NAFLPG: the amyloid nucleation score stood at 4.52 ± 0.12.

The substance VNLLLMVWRGLLLARTGRSG had an amyloid nucleation score of 1.96 ± 0.11.

In the case of GVNILTLWHWIYFNTTVQNN, the amyloid nucleation score is -1.19 ± 0.38.

In turn, MMIAWFSRMCFF registered an amyloid nucleation score of 2.92 ± 0.1.

Regarding SKPCWLFRNK, the amyloid nucleation score is -1.22 ± 1.1.

LNYYWRFMPGGIGITGSSLS: the amyloid nucleation score amounted to 1.72 ± 0.12.

In the case of IKYSVVNRHRVGLSVTAKW, the amyloid nucleation score is -0.205 ± 0.37.

For the substance AFNWIEVCEETSPGSTTEGS, the amyloid nucleation score was 0.318 ± 0.39.

Take YKVQTLDAPNYRFIGVFVRS: the amyloid nucleation score was -0.711 ± 1.1.

With YRRGRLSMRSVWTKGCKERM, the amyloid nucleation score result was “inactive”.

Consider SLLESLVAMLVGVQRVVDSR, for which the amyloid nucleation score was found to be 1.03 ± 0.51.

For the substance LLLCYYVFASHKFCCGDGVL, the amyloid nucleation score was -0.302 ± 0.76.

Substance YMTVLLMSVFNWSQSRRPP showed an amyloid nucleation score of 3.55 ± 0.077.

As for CGQRCPKC, the amyloid nucleation score was 3.81 ± 0.063.

Consider SVLAAP, for which the amyloid nucleation score entry was “inactive”.

With QQYPWYWIFIFNIYKYPSVS, the amyloid nucleation score was determined as 0.475 ± 0.42.

AIFDTIYC came in with an amyloid nucleation score of -0.541 ± 1.1.

As for RPKLGSSVVRHVMFIGWGCG, the amyloid nucleation score turned out to be 0.797 ± 0.43.

VCSGGLQDSRGYCCYPVGRM: the amyloid nucleation score was found to be 1.31 ± 0.32.

Substance GVPRMTSVDSYRLLLFSASR registered an amyloid nucleation score of 0.19 ± 0.25.

Regarding LAWSVLNMFRKVAFN, the amyloid nucleation score stood at 0.089 ± 1.1.

With LGQSCTYQCQQLCSLSHNRV, the amyloid nucleation score is -0.214 ± 1.1.

Turning to MNELVIIGILMCCTDF, the amyloid nucleation score turned out to be 8.484 ± 0.027.

FSFRLYMEFLWGI: the amyloid nucleation score result was “inactive”.

In turn, ADNVGS returned an amyloid nucleation score of 3.71 ± 0.058.

SNIRISTADDSNSFLPFSSA gave an amyloid nucleation score of -0.315 ± 0.43.

As to VIRVLSMLFFSRVLVPVNSK, the amyloid nucleation score amounted to 0.151 ± 0.62.

Regarding KGSSSWTLPVYSLELSLV, the amyloid nucleation score was -0.731 ± 0.79.

For NSNTKTSPIISW, the amyloid nucleation score entry was “inactive”.

MGNSYIEVRSLYR registered an amyloid nucleation score of -0.578 ± 0.64.

Turning to TVMRGVLCMTILYLMWHKGY, the amyloid nucleation score came to 4.75 ± 0.08.

For the substance YNKGPLTGMFYMEGASVNIC, the amyloid nucleation score result is “inactive”.

The substance RLNLGYYKEAVYN had an amyloid nucleation score of -1.65 ± 0.63.
